Patent publication US20250382344A1, “Soluble GLP1/GIP/NPY2 Receptor Triple Agonists” (Boehringer Ingelheim International GmH, priority 2024, published 2025)
Changes are numbered by the printed parent chain. *1 amine or outer side, *2 acyl side, *3 side chain or, on linkers, in order; H or OH if unused. Where no end group is shown, it is not given here. Side-chain parts run from the residue outwards. [ ]: non-standard residue; d: D form. The star is where a group is joined. C20 diacid = O=C(O)CCCCCCCCCCCCCCCCCCC(=O)*; C18 diacid = O=C(O)CCCCCCCCCCCCCCCCC(=O)*; γGlu = O=C(O)[C@H](CCC(=O)[*:2])N[*:1]; εLys = N[C@@H](CCCCN[*:1])C(=O)[*:2]; TRX = not defined here; AEEA = NCCOCCOCC(=O)O; Aib = CC(C)(N)C(=O)O

T1: human GIP receptor (human, UniProt P48546 22-466)
T1 sequence (looked up): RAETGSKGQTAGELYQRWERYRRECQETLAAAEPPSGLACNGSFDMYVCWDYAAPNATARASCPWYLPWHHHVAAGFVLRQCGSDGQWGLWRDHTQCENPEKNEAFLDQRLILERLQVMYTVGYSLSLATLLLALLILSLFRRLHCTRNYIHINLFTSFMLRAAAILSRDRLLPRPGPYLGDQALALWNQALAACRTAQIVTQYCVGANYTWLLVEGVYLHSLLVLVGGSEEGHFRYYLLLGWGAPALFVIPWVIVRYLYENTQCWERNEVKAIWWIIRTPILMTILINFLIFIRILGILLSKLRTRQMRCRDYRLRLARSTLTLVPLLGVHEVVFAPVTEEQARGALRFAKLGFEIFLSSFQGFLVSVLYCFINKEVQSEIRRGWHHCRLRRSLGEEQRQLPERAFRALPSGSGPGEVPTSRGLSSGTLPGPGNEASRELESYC

T2: human neuropeptide Y2 receptor (human, UniProt P49146 1-381)
T2 sequence (looked up): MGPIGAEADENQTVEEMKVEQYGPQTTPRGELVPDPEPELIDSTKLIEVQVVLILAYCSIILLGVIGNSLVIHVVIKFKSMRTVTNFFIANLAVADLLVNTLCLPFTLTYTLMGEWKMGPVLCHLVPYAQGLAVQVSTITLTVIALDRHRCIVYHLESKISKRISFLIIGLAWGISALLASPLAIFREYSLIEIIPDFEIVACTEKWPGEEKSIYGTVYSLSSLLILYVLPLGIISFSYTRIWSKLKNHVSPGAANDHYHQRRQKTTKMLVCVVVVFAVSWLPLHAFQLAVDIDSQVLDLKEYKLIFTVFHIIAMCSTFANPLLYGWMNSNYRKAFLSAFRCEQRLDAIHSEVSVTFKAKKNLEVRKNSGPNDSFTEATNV

B1: Compound 134 (peptide)
peptide: Y[Aib]EGTFTSDYSI[Aib]LEKQAQ[Aib]AFVRHLINK([γGlu-γGlu-γGlu-γGlu-γGlu-γGlu-C18 diacid])[Aib]TRQRY-NH2
B2: Compound 163 (peptide)
peptide: Y[Aib]EGTFTSDYSI[Aib]LEKQAQ[Aib]EFVRHLINK([εLys-γGlu-γGlu-γGlu-γGlu-C18 diacid])[Aib]TRQRY-NH2
B3: Compound 99 (peptide)
peptide: Y[Aib]EGTFTSDYSI[Aib]LEKQAQ[Aib]AFVRHLINK([AEEA-γGlu-γGlu-γGlu-γGlu-γGlu-γGlu-C20 diacid])[Aib]TRQRY-NH2
B4: Compound 169 (peptide)
peptide: YXEGTFTSDLSIXLEKQAQXAFVRHLINKXTRQRY
modifications: Aib at 2, 13, 20, 30; Lys29 epsilon-amino: C18DA-gGlu-gGlu-gGlu-gGlu-gGlu-gGlu-eLys; C-terminal amide
B5: Compound 126 (peptide)
peptide: B4 peptide with L10Y, X30V
modifications: Aib at 2, 13, 20; Lys29 epsilon-amino: C18DA-gGlu-gGlu-gGlu-gGlu-gGlu-gGlu-eLys; C-terminal amide
B6: Compound 122 (peptide)
peptide: B4 peptide with L10Y, X13L
modifications: Aib at 2, 20, 30; Lys29 epsilon-amino: C18DA-gGlu-gGlu-gGlu-gGlu-gGlu; C-terminal amide
B7: Compound 139 (peptide)
peptide: B4 peptide with L10Y, L26A
modifications: Aib at 2, 13, 20, 30; Lys29 epsilon-amino: C18DA-gGlu-gGlu-gGlu-gGlu-gGlu-gGlu-eLys; C-terminal amide
B8: Compound 144 (peptide)
peptide: B4 peptide with L10Y, A21S
modifications: Aib at 2, 13, 20, 30; Lys29 epsilon-amino: C18DA-gGlu-gGlu-gGlu-gGlu-gGlu-gGlu-eLys; C-terminal amide
B9: Compound 159 (peptide)
peptide: B4 peptide with L10Y, X30A
modifications: Aib at 2, 13, 20; Lys29 epsilon-amino: C18DA-gGlu-gGlu-gGlu-gGlu-gGlu-gGlu-eLys; C-terminal amide
B10: Compound 142 (peptide)
peptide: B4 peptide with L10Y, S11A
modifications: Aib at 2, 13, 20, 30; Lys29 epsilon-amino: C18DA-gGlu-gGlu-gGlu-gGlu-gGlu-gGlu-eLys; C-terminal amide
B11: Compound 140 (peptide)
peptide: B4 peptide with L10Y
modifications: Aib at 2, 13, 20, 30; Lys29 epsilon-amino: C18DA-gGlu-gGlu-gGlu-gGlu-gGlu-OEG; C-terminal amide
B12: Compound 106 (peptide)
peptide: B4 peptide with L10Y
modifications: Aib at 2, 13, 20, 30; Lys29 epsilon-amino: C20DA-gGlu-gGlu-gGlu-gGlu-gGlu-AHX-AHX; C-terminal amide
B13: Compound 93 (peptide)
peptide: B4 peptide with G4A, L10Y
modifications: Aib at 2, 13, 20, 30; Lys29 epsilon-amino: C18DA-gGlu-gGlu-gGlu-gGlu-gGlu-gGlu-eLys; C-terminal amide
B14: Compound 150 (peptide)
peptide: B4 peptide with L10Y
modifications: Aib at 2, 20, 30; aMeL at 13; Lys29 epsilon-amino: C20DA-gGlu-gGlu-gGlu-gGlu-gGlu-gGlu-eLys; C-terminal amide
B15: Compound 95 (peptide)
peptide: B4 peptide with L10Y, K16G
modifications: Aib at 2, 13, 20, 30; Lys29 epsilon-amino: C18DA-gGlu-gGlu-gGlu-gGlu-gGlu-gGlu-eLys; C-terminal amide
B16: Compound 153 (peptide)
peptide: B4 peptide with L10Y, E15D, H25Y
modifications: Aib at 2, 13, 20, 30; Lys29 epsilon-amino: C18DA-gGlu-gGlu-gGlu-gGlu-gGlu-gGlu-eLys; C-terminal amide
B17: Compound 143 (peptide)
peptide: B4 peptide with L10Y, Q17A
modifications: Aib at 2, 13, 20, 30; Lys29 epsilon-amino: C18DA-gGlu-gGlu-gGlu-gGlu-gGlu-gGlu-eLys; C-terminal amide
B18: Compound 102 (peptide)
peptide: B4 peptide with L10Y, E15D, V23I
modifications: Aib at 2, 13, 20, 30; Lys29 epsilon-amino: C18DA-gGlu-gGlu-gGlu-gGlu-gGlu-gGlu-eLys; C-terminal amide
B19: Compound 151 (peptide)
peptide: B4 peptide with L10Y, X20Y
modifications: Aib at 2, 13, 30; Lys29 epsilon-amino: C18DA-gGlu-gGlu-gGlu-gGlu-gGlu-gGlu-eLys; C-terminal amide
B20: Compound 170 (peptide)
peptide: B4 peptide with L10Y, X20E
modifications: Aib at 2, 13, 30; Lys29 epsilon-amino: C18DA-gGlu-gGlu-gGlu-gGlu-gGlu-gGlu-eLys; C-terminal amide
B21: Compound 158 (peptide)
peptide: B4 peptide with L10Y, X30L
modifications: Aib at 2, 13, 20; Lys29 epsilon-amino: C18DA-gGlu-gGlu-gGlu-gGlu-gGlu; C-terminal amide
B22: Compound 86 (peptide)
peptide: B4 peptide with L10Y, Y35X
modifications: Aib at 2, 13, 20, 30; Phe4F at 35; Lys29 epsilon-amino: C18DA-gGlu-gGlu-gGlu-gGlu-gGlu-gGlu-eLys; C-terminal amide
B23: Compound 127 (peptide)
peptide: B4 peptide with L10Y, X30L
modifications: Aib at 2, 13, 20; Lys29 epsilon-amino: C18DA-gGlu-gGlu-gGlu-gGlu-gGlu-gGlu-eLys; C-terminal amide
B24: Compound 155 (peptide)
peptide: Y[Aib]EGTFTSDYSI[Aib]LDEQAQ[Aib]AFVRHLINK([εLys-εLys-γGlu-γGlu-γGlu-γGlu-γGlu-C20 diacid])[Aib]TRQRY-NH2
B25: Compound 121 (peptide)
peptide: Y[Aib]EGTFTSDYSI[Aib]LEKQAQ[Aib]AFVRHLINK([εLys-γGlu-γGlu-γGlu-γGlu-γGlu-γGlu-γGlu-C18 diacid])[Aib]TRQRY-NH2
B26: Compound 138 (peptide)
peptide: Y[Aib]EGTFTSDYSI[Aib]LDEQAQ[Aib]AFVRHLINK([εLys-γGlu-γGlu-γGlu-γGlu-γGlu-C20 diacid])[Aib]TRQRY-NH2
B27: Compound 162 (peptide)
peptide: Y[Aib]EGTFTSDYSI[Aib]LEKQAE[Aib]AFVRHLINK([εLys-γGlu-γGlu-AEEA-γGlu-γGlu-γGlu-C20 diacid])[Aib]TRQRY-NH2
B28: Compound 113 (peptide)
peptide: Y[Aib]EGTFTSDYSI[Aib]LDKQAQ[Aib]EFVRHLINK([εLys-γGlu-γGlu-γGlu-γGlu-γGlu-C18 diacid])[Aib]TRQRY-NH2
B29: Compound 135 (peptide)
peptide: Y[Aib]EGTFTSDLSI[Aib]LEKQAQ[Aib]AFVRHLINK([εLys-γGlu-γGlu-γGlu-γGlu-γGlu-γGlu-γGlu-C20 diacid])[Aib]TRQRY-NH2
B30: Compound 136 (peptide)
peptide: Y[Aib]EGTFTSDYSI[Aib]LEKQAQ[Aib]AFVRHLINK([γGlu-γGlu-AEEA-γGlu-γGlu-γGlu-γGlu-C20 diacid])[Aib]TRQRY-NH2
B31: Compound 148 (peptide)
peptide: Y[Aib]EGTFTSDYSI[Aib]LEKQAE[Aib]AFVRHLINK([εLys-γGlu-AEEA-γGlu-γGlu-γGlu-γGlu-C20 diacid])[Aib]TRQRY-NH2
B32: Compound 133 (peptide)
peptide: Y[Aib]EGTFTSDYSI[Aib]LEKQAQ[Aib]AFVRHLINK([γGlu-γGlu-γGlu-γGlu-γGlu-γGlu-TRX-C20 diacid])[Aib]TRQRY-NH2
modifications: reading uncertain

The binders below were run against human GLP-1 receptor (human, UniProt P43220 24-463) (assay: cell-based or functional assay).

Binder	EC50, CreLuc reporter, 0.5% hP	EC50, CreLuc reporter, 100% hP
B1	1 nM	4 nM

The binders below were run against T1, human GIP receptor (assay: cell-based or functional assay).

Binder	EC50, CreLuc reporter, 0.5% hP	EC50, CreLuc reporter, 100% hP
B2	0.2 nM	5.9 nM
B3	0.5 nM	9 nM
B4	0.4 nM	–
B5	0.4 nM	–
B6	0.1 nM	4.5 nM
B7	12.2 nM	22.3 nM
B8	0.4 nM	4.8 nM
B9	0.2 nM	–
B10	0.3 nM	3.4 nM
B11	–	8 nM
B12	–	4.7 nM
B13	–	17.6 nM
B14	–	2.8 nM
B15	–	9.3 nM
B16	0.1 nM	–
B17	0.3 nM	–

Binder	EC50, CreLuc reporter, 0.5% hP	EC50, CreLuc reporter, 100% hP
B18	0.1 nM	2.8 nM
B19	0.5 nM	5.6 nM
B20	0.4 nM	–
B21	0.5 nM	14.4 nM
B22	0.3 nM	5.9 nM
B23	–	16.7 nM
B24	0.7 nM	6.1 nM
B25	–	2.8 nM
B26	0.5 nM	11.5 nM
B27	0.7 nM	–
B28	0.2 nM	5.5 nM
B29	0.5 nM	5.8 nM
B30	0.5 nM	9.1 nM
B31	0.8 nM	–
B32	–	3.4 nM

Each binder was assayed against T2, human neuropeptide Y2 receptor (assay: cell-based or functional assay).

Binder	EC50, CreLuc reporter, 100% hP	EC50, CreLuc reporter, 0.5% hP
B2	218 nM	–
B3	125 nM	16.7 nM
B6	284 nM	60.8 nM
B7	22.7 nM	–
B9	57.5 nM	11.5 nM
B10	31.8 nM	17.4 nM
B11	141 nM	22 nM
B12	41.7 nM	7.1 nM
B13	24.8 nM	–
B14	90.7 nM	–
B15	96.3 nM	58 nM
B16	65.5 nM	40 nM
B19	89.8 nM	32.6 nM
B20	244 nM	43.8 nM
B21	149 nM	26 nM
B22	162 nM	33.2 nM
B23	76.9 nM	10.3 nM
B24	63.1 nM	6 nM
B25	–	13.8 nM
B27	43.8 nM	–
B29	47.8 nM	18.8 nM
B30	123 nM	38.5 nM
B32	246 nM	44.9 nM
